Source: the supplement of paper PMC9112550, “Optimization of the antimicrobial peptide Bac7 by deep mutational scanning” (BMC Biology, 2022)

The sequences below were run on Escherichia coli TOP10 (assay: shrunken log2 fold change of peptide-encoding DNA abundance (4.5 h post-induction vs induction); higher = less antimicrobial activity (less host growth inhibition)). Details: time post-induction: 4.5 h; library: site-saturation at positions 5, 18, 19, 20.
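Also: peptides expressed intracellularly from a pBAD plasmid library in pooled LB shake-flask culture, induced with 0.3% L-arabinose, DNA abundance read by NGS, three biological replicates, DESeq2 with apeglm shrinkage.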

Sequence	shrunken log2 fold change
RRIRLRPPRLPRPRPRPLSHPRP	0.2
RRIRYRPPRLPRPRPRPPCIPRP	-0.583
RRIRSRPPRLPRPRPRPRLLPRP	0.229
RRIRMRPPRLPRPRPRPLKDPRP	0.0898
RRIRGRPPRLPRPRPRPNVAPRP	1.15
RRIRNRPPRLPRPRPRPDKIPRP	0.159
RRIRARPPRLPRPRPRPYVVPRP	-0.623
RRIRWRPPRLPRPRPRPWYNPRP	-0.119
RRIRWRPPRLPRPRPRPTGNPRP	0.2
RRIRIRPPRLPRPRPRPEHLPRP	-0.105
RRIRIRPPRLPRPRPRPQCGPRP	0.0719
RRIRARPPRLPRPRPRPWLIPRP	0.111
RRIRYRPPRLPRPRPRPKRMPRP	-0.207
RRIRARPPRLPRPRPRPVHAPRP	0.768
RRIRERPPRLPRPRPRPVKAPRP	-0.0316
RRIRQRPPRLPRPRPRPHKWPRP	-0.2
RRIRARPPRLPRPRPRPNYYPRP	-0.414
RRIRVRPPRLPRPRPRPTSHPRP	-0.139
RRIRHRPPRLPRPRPRPNSAPRP	-0.0296
RRIRIRPPRLPRPRPRPYLKPRP	0.000419
RRIRCRPPRLPRPRPRPHYPPRP	-0.902
RRIRMRPPRLPRPRPRPFTYPRP	-0.0802
RRIRDRPPRLPRPRPRPLPPPRP	0.306
RRIRTRPPRLPRPRPRPVCCPRP	-0.254
RRIRFRPPRLPRPRPRPTWDPRP	0.0928

Sequence	shrunken log2 fold change
RRIRKRPPRLPRPRPRPCISPRP	0.0183
RRIRWRPPRLPRPRPRPGKEPRP	-0.0139
RRIRPRPPRLPRPRPRPLNWPRP	0.0566
RRIRERPPRLPRPRPRPEQDPRP	-0.0751
RRIRERPPRLPRPRPRPGVWPRP	0.44
RRIRARPPRLPRPRPRPHKWPRP	0.192
RRIRARPPRLPRPRPRPTFIPRP	-0.18
RRIRCRPPRLPRPRPRPQTGPRP	-0.144
RRIRDRPPRLPRPRPRPWAVPRP	-0.066
RRIRYRPPRLPRPRPRPWRSPRP	0.175
RRIRSRPPRLPRPRPRPNAVPRP	-0.205
RRIRCRPPRLPRPRPRPWDNPRP	-0.291
RRIRSRPPRLPRPRPRPGWDPRP	0.444
RRIRNRPPRLPRPRPRPSPAPRP	0.0876
RRIRYRPPRLPRPRPRPGKSPRP	0.0131
RRIRCRPPRLPRPRPRPRIVPRP	0.0193
RRIRHRPPRLPRPRPRPPNHPRP	-0.442
RRIRRRPPRLPRPRPRPRCGPRP	0.474
RRIRVRPPRLPRPRPRPDQRPRP	0.128
RRIRYRPPRLPRPRPRPHIEPRP	-1.47
RRIRTRPPRLPRPRPRPAQLPRP	-0.216
RRIRVRPPRLPRPRPRPHYTPRP	-0.169
RRIRLRPPRLPRPRPRPAFGPRP	0.359
RRIRQRPPRLPRPRPRPSWFPRP	-0.323
RRIRLRPPRLPRPRPRPDQSPRP	0.0621

Sequence	shrunken log2 fold change
RRIRNRPPRLPRPRPRPKRGPRP	0.00668
RRIRARPPRLPRPRPRPGWCPRP	0.465
RRIRYRPPRLPRPRPRPEWGPRP	-0.169
RRIRDRPPRLPRPRPRPPQHPRP	0.171
RRIRIRPPRLPRPRPRPQTHPRP	-0.412
RRIRARPPRLPRPRPRPQIQPRP	0.503
RRIRYRPPRLPRPRPRPEDSPRP	-0.0108
RRIRPRPPRLPRPRPRPHVTPRP	-0.0437
RRIRRRPPRLPRPRPRPCEKPRP	-0.0914
RRIRPRPPRLPRPRPRPQDVPRP	-0.373
RRIRVRPPRLPRPRPRPWCLPRP	-0.198
RRIRIRPPRLPRPRPRPQSVPRP	-0.295
RRIRRRPPRLPRPRPRPQTSPRP	0.24
RRIRIRPPRLPRPRPRPKAIPRP	-0.157
RRIRHRPPRLPRPRPRPCWAPRP	0.00936
RRIRSRPPRLPRPRPRPVATPRP	0.707
RRIRARPPRLPRPRPRPDFGPRP	0.106
RRIRARPPRLPRPRPRPACRPRP	0.896
RRIRWRPPRLPRPRPRPRLVPRP	0.476
RRIRARPPRLPRPRPRPGNYPRP	0.208
RRIRKRPPRLPRPRPRPHEKPRP	1.1
RRIRIRPPRLPRPRPRPPCGPRP	-0.239
RRIRLRPPRLPRPRPRPYKDPRP	-0.269
RRIRVRPPRLPRPRPRPFILPRP	-0.384
RRIRRRPPRLPRPRPRPWLSPRP	0.0437

Sequence	shrunken log2 fold change
RRIRNRPPRLPRPRPRPTAKPRP	-0.136
RRIRGRPPRLPRPRPRPAHGPRP	0.204
RRIRRRPPRLPRPRPRPIHHPRP	-0.207
RRIRPRPPRLPRPRPRPACEPRP	0.0148
RRIRYRPPRLPRPRPRPRMKPRP	-0.241
RRIRFRPPRLPRPRPRPVKLPRP	0.294
RRIRPRPPRLPRPRPRPFAIPRP	-0.232
RRIRFRPPRLPRPRPRPQIHPRP	-0.995
RRIRLRPPRLPRPRPRPMRHPRP	0.188
RRIRPRPPRLPRPRPRPKALPRP	0.461
RRIRQRPPRLPRPRPRPPQCPRP	0.114
RRIRHRPPRLPRPRPRPMVCPRP	-0.0703
RRIRYRPPRLPRPRPRPWHNPRP	-0.626
RRIRGRPPRLPRPRPRPDECPRP	-0.00184
RRIRLRPPRLPRPRPRPEVAPRP	0.475
RRIRQRPPRLPRPRPRPALLPRP	-0.0269
RRIRERPPRLPRPRPRPAACPRP	0.0165
RRIRRRPPRLPRPRPRPTWAPRP	0.7
RRIRHRPPRLPRPRPRPPPSPRP	0.87
RRIRFRPPRLPRPRPRPFLEPRP	-0.355
RRIRYRPPRLPRPRPRPLYKPRP	-0.229
RRIRPRPPRLPRPRPRPENNPRP	-0.119
RRIRVRPPRLPRPRPRPYTYPRP	0.128
RRIRDRPPRLPRPRPRPAKSPRP	-0.0126
RRIRCRPPRLPRPRPRPWSTPRP	-0.148

Sequence	shrunken log2 fold change
RRIRIRPPRLPRPRPRPGLYPRP	-0.0503
RRIRMRPPRLPRPRPRPGIEPRP	2.2
RRIRTRPPRLPRPRPRPHFEPRP	-0.323
RRIRQRPPRLPRPRPRPHQMPRP	0.0681
RRIRERPPRLPRPRPRPPGEPRP	0.439
RRIRTRPPRLPRPRPRPHIWPRP	-0.103
RRIRFRPPRLPRPRPRPKYCPRP	0.124
RRIRNRPPRLPRPRPRPEDWPRP	-0.0232
RRIRWRPPRLPRPRPRPHVWPRP	0.126
RRIRFRPPRLPRPRPRPKMPPRP	-0.0572
RRIRKRPPRLPRPRPRPKGVPRP	0.286
RRIRGRPPRLPRPRPRPLKEPRP	0.343
RRIRQRPPRLPRPRPRPAYNPRP	0.018
RRIRDRPPRLPRPRPRPRLPPRP	0.4
RRIRDRPPRLPRPRPRPKQMPRP	0.113
RRIRLRPPRLPRPRPRPNTFPRP	-0.348
RRIRIRPPRLPRPRPRPDCTPRP	0.0385
RRIRGRPPRLPRPRPRPGANPRP	0.874
RRIRARPPRLPRPRPRPIAFPRP	0.222
RRIRFRPPRLPRPRPRPKISPRP	-0.596
RRIRMRPPRLPRPRPRPWGEPRP	0.232
RRIRMRPPRLPRPRPRPHQEPRP	0.018
RRIRYRPPRLPRPRPRPVAWPRP	0.00214
RRIRRRPPRLPRPRPRPTTLPRP	0.0363
RRIRPRPPRLPRPRPRPCGCPRP	0.098

Sequence	shrunken log2 fold change
RRIRWRPPRLPRPRPRPNLFPRP	0.144
RRIRPRPPRLPRPRPRPWVWPRP	0.267
RRIRQRPPRLPRPRPRPEVGPRP	-0.0239
RRIRHRPPRLPRPRPRPLDIPRP	-0.105
RRIRHRPPRLPRPRPRPYIKPRP	-0.287
RRIRRRPPRLPRPRPRPVQTPRP	0.178
RRIRPRPPRLPRPRPRPYIDPRP	-0.331
RRIRERPPRLPRPRPRPNLVPRP	-0.0264
RRIRTRPPRLPRPRPRPGWFPRP	0.461
RRIRFRPPRLPRPRPRPHMAPRP	-0.429
RRIRPRPPRLPRPRPRPCTHPRP	-0.0646
RRIRPRPPRLPRPRPRPFWMPRP	-0.00291
RRIRARPPRLPRPRPRPFRCPRP	-0.0823
RRIRNRPPRLPRPRPRPAVEPRP	-0.0887
RRIRTRPPRLPRPRPRPLPFPRP	-0.518
RRIRVRPPRLPRPRPRPKETPRP	0.0161
RRIRVRPPRLPRPRPRPGKNPRP	-0.22
RRIRTRPPRLPRPRPRPISFPRP	-0.199
RRIRFRPPRLPRPRPRPCQTPRP	-0.414
RRIRNRPPRLPRPRPRPRHNPRP	-0.403
RRIRCRPPRLPRPRPRPEKNPRP	0.165
RRIRVRPPRLPRPRPRPSNQPRP	-0.507
RRIRTRPPRLPRPRPRPDHVPRP	-0.0634
RRIRHRPPRLPRPRPRPRIRPRP	-0.00948
RRIRSRPPRLPRPRPRPTELPRP	-0.0967
